From patent US20130189283A1 come the findings set out here.

For this assay, the target named is Kv1.3 voltage-gated potassium channel on T cells in human whole blood (human) (UniProt P22001). As to the kind of experiment: cell-based or functional assay.

Where no end group is shown, it is not given here.

Kv1.3 voltage-gated potassium channel on T cells in human whole blood (human), sequence (P22001 whole entry): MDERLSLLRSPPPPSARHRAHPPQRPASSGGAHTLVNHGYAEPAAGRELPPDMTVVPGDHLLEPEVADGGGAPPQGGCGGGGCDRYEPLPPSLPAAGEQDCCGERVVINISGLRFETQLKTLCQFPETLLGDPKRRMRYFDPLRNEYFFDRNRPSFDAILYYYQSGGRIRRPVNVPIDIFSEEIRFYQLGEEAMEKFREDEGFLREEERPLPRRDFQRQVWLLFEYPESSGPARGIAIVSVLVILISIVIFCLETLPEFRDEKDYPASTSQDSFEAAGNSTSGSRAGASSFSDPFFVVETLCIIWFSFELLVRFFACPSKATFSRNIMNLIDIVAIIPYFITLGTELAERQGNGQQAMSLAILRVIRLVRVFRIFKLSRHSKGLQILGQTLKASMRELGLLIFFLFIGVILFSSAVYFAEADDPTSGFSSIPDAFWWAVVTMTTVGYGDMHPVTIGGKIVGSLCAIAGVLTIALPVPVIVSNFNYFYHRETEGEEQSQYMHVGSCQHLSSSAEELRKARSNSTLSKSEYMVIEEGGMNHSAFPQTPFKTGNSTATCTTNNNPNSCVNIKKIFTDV

B1: Bivalent Fc-L10-ShK[2-35] homodimer (Fc fusion)
chain: GGGGSGGGGSSCIDTIPKSRCTAFQCKHSMKYRLSFCRKTCGTC
modifications: not fully specified (N-terminus); ends and bridges not checked; also: homodimer via Fc
B1 came in with a Potency Relative to ShK (WB, IL2) of 8.73 fold; a WB (IFNg) IC50 of 2.29 nM; a WB (IL-2) IC50 of 0.585 nM.

B2: Bivalent Fc-L10-ShK[1-35] homodimer (Fc fusion)
chain: GGGGSGGGGSRSCIDTIPKSRCTAFQCKHSMKYRLSFCRKTCGTC
modifications: not fully specified (N-terminus); ends and bridges not checked; also: homodimer via Fc
Take B2: the Potency Relative to ShK (WB, IL2) is 5.76 fold; the WB (IFNg) IC50 came out at 0.32 nM; the WB (IL-2) IC50 came to 0.386 nM.
